Assays:
hIAPP-T7n = hIAPP-T7n (UniProt P00573+P10997); settings: for Percent total reads (positive selection) / Rank (positive selection): positive selection on hIAPP, high-throughput sequencing; for Rank (positive selection): top enriched sequences
Source text: Next, we examined if our system could discover inhibitors of other disease-associated APPs. We targeted human islet amyloid polypeptide (hIAPP), which forms amyloid deposits in patients with type-2 diabetes that are hypothesized to contribute to […] dysfunction.^40 To create a selection for hIAPP aggregation inhibitors, we simply cloned hIAPP in place of Aβ42 in our selection circuit (FIG. 2B). We used an SP-encoded CZ6 SICLOPPS library (Z=NDT codon encoded amino acid: R, N, D, C, G, H, I, L, F, S, Y, or V) (˜3×10^6 total sequences). This codon set was chosen to reduce the theoretical library size and facilitate library cloning. The library (total of ˜5×10^6 transformants) was cloned on a SP obtained from an additional 250 hours of PACE using a more stringent selection (FIGS. 10A-10D).
We performed five rounds of selection, diluting the SP pool by ten-fold each round (FIG. 4A). […] To verify that we selected phage with higher activity, we measured the propagation of the SP from each round on hIAPP selection cells, normalizing input phage titers to […] to enable head-to-head comparison between phage pools.
(§1) Single colonies of host cells transformed with the appropriate selection plasmids were used to make overnight cultures in 2×YT with maintenance antibiotics. The overnight culture was diluted (1:100) into 4-5 mL DRM with maintenance antibiotics and incubated at 37° C. with shaking until the OD600 of the culture reached ˜0.5, upon which the expanded phage library was added at a titer of 1×10^6 pfu/mL. The culture was incubated at 37° C. with shaking overnight (13-18 h). The next day, the culture was centrifuged at 8,000 rcf for 2 min to obtain the supernatant containing phage. The collected phage was diluted into fresh host cell cultures (10 to 1,000-fold) for the next round of selection, while the rest was stored at 4° C. for downstream analysis. This process was repeated until a significant increase in phage propagation was observed compared with the parent library. Both positive and negative selection rounds were performed using this procedure.
(§2) Sample preparation. Phage stocks collected from the final rounds of library selection were first amplified using LY0145 and LY0146. The PCR product was purified, and adapters added using LY0147 and LY0148. The resulting PCR product was purified and barcoded through a final PCR using index primers to add unique indices for shared Illumina NovaSeq sequencing. The final PCR product was purified, and the concentration measured by Nanodrop. Further sample quality control was performed by the University of Wisconsin-Madison Biotechnology Center (UWBC).
(§3) High-throughput sequencing and data analysis. High-throughput sequencing was performed by UWBC using a shared sequencing service on the NovaSeq 6000 platform. Sequencing reads were demultiplexed by UWBC and analyzed using custom-written Python scripts.

Aβ42-T7n = Aβ42-T7n (UniProt P00573+P05067); settings: for Fold enrichment in negative vs. positive selection: percent reads negative vs. positive selection; for Percent total reads (negative selection) / Rank (negative selection): subsequent negative selection against Aβ42, high-throughput sequencing
Source text: To create a negative selection, we placed gIII-neg, a dominant-negative form of gIII,^44 under PT7 in our selection circuit. Inhibition of a non-target APP (ex. Aβ42) triggers pIII-neg expression and poisons phage proliferation. A second plasmid produces small amounts of pIII from the phage shock promoter (FIG. 16A). All SPs infecting cells encoding this negative selection receive sufficient pIII to propagate. However, SP that carry a promiscuous or false positive cyclic peptide will also produce pIII-neg and generate non-infectious progeny (FIGS. 16B and 16C). We subjected the hIAPP round 5 phage population to four rounds of negative selection, diluting the phage by 100-fold each round (FIG. 5B).
as §1, §2, §3

hIAPP = target: T1, hIAPP (Homo sapiens, UniProt P10997); experiment: Native mass spectrometry (nESI-MS) of peptide-hIAPP interaction; format: binding; settings: peptide:hIAPP stoichiometry of complex
T1 construct: A 1 mg portion of amylin trifluoroacetate salt (Bachem) was purchased as lyophilized solid in a vial; purchased Bachem
T1 sequence (P10997 34-70 limits assumed): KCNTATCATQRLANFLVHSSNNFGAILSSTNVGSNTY
Description: hIAPP was dissolved in 200 mM ammonium acetate buffer (pH 7.4) to prepare 100 μM hIAPP stock solution. Cyclic peptide was first dissolved in DMSO to 10 mM, then diluted into the buffer to make 1 mM cyclic peptide stock solution. These stock solutions were diluted into the buffer to achieve final concentrations of [hIAPP]=16 μM and [cyclic peptide]=64 μM. The percentage of DMSO in the final solution was 0.64% for all the samples. Prepared samples were incubated quiescently for 20 min at 32° C. Native ESI-MS analysis was then performed on a SELECT SERIES Cyclic IMS Q-TOF (Waters Corp., Wilmslow, U.K.) equipped with nano-ESI interface.
All the samples were analyzed using positive ionization ESI with a capillary voltage of 1.1 kV. The following instrumental parameters were used: source temperature 100° C.; desolvation temperature 250° C.; sampling cone 30 V; backing pressure 2.5 mbar; trap collision energy 6 V; trap DC −4 V; transfer collision energy 4 V. The system was calibrated with NaI cluster ions from a 2 μg/μL 50:50 2-propanol:water solution. Data were acquired over the m/z range of 50-8000 and processed using MassLynxV4.2 (Waters Corp., Wilmslow, U.K.).

Chain of Aβ42-T7n (P05067+P00573 fused): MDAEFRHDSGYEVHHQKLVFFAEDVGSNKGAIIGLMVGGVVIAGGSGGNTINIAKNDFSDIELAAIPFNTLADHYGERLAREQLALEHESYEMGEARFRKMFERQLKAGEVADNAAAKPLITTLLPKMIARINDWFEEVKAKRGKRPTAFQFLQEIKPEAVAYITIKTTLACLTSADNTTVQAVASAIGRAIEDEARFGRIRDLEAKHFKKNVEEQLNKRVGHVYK
Chain of hIAPP-T7n (P10997+P00573 fused): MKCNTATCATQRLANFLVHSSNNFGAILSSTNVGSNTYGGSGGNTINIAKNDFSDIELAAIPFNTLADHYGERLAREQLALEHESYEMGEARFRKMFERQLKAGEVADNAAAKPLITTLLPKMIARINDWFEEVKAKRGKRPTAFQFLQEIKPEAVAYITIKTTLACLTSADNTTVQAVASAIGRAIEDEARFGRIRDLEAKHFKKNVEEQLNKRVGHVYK

Row | Substance | Percent total reads (positive selection) (hIAPP-T7n) [%] | Rank (positive selection) (hIAPP-T7n) | Fold enrichment in negative vs. positive selection (Aβ42-T7n) | Percent total reads (negative selection) (Aβ42-T7n) [%] | Rank (negative selection) (Aβ42-T7n) | complex with hIAPP detected by native mass spectrometry (hIAPP) | share of sequencing reads in SP pool (hIAPP-T7n; round 5 of hIAPP positive selection, deep sequencing) [%]
1 | CDLGVFR (cyclised; Circular) [cyclo-CDLGVFR] | 0.08 | 14 | 410.79 | 31.22 | 1 | 1:1 complexes | 
2 | CHVVGVI (cyclised; Circular) [cyclo-CHVVGVI] | 94.40 | 1 | 0.003 | 0.29 | 20 | 1:1 complex | ~95
3 | CRCVFSG (cyclised; Circular) [cyclo-CRCVFSG] | 0.04 | 20 | 701.46 | 24.55 | 2 | 1:1 complexes | 
